The target of test [1] is T1, cynomolgus monkey CD3 E&D complex protein (Sino Biological Inc., CT032-00323H) (cynomolgus monkey, UniProt Q95LI5 22-117; Q95LI8 22-105).
T1 construct: bought heterodimer
Put plainly: BLI, antibody on sensor. The procedure:
(§1) 100 μl SD buffer, various antibodies, human CD3 E&D complex protein (Sino Biological Inc., CT026H0323H), and cynomolgus monkey CD3 E&D complex protein (Sino Biological Inc., CT032-00323H) were added into 96-well black polystyrene semi-quantitative micro-well plate (Greiner, 675076) respectively. Fortebio Octet Red 96 was used for detection, and the sensor position was selected according to the sample position. The setting parameters of the instrument are as follows: operation steps: Baseline, Loading-1 nm, Baseline, Association and Dissociation; the operation time of each step depends on the speed of sample association and dissociation. The rotational speed is 1000 rpm and the temperature is 30° C. ForteBio Octet analysis software was used to analyze KD value.
Background: In BLI a coated tip is dipped into the sample, and binding shifts an interference pattern.

Test [2] has as its target T2, human CD3 E&D complex protein (Sino Biological Inc., CT026H0323H) (human, UniProt P07766 23-126; P04234 22-105).
T2 construct: bought heterodimer; also called human CD3 protein (CT026H0323H)
Nature of the test: BLI, antibody on sensor. The procedure:
as §1

Where a chain is given by its changes, count along the chain named. Names and notes keep the numbering of the source.

T2 sequence (P07766 23-126, chain 1 of 2): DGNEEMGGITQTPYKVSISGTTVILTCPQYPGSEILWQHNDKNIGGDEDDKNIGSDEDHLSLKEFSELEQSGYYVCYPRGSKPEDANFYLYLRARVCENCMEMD
T2 sequence (P04234 22-105, chain 2 of 2): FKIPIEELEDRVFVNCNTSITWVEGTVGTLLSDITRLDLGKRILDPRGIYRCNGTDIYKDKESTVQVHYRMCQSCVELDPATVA
T1 sequence (Q95LI5 22-117, chain 1 of 2): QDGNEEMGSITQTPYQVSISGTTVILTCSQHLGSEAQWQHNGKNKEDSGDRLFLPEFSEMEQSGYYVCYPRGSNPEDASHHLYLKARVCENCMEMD
T1 sequence (Q95LI8 22-105, chain 2 of 2): as the sequence (P04234 22-105, chain 2 of 2) above, with I5V, N15K, I20V, S32T, D33N, I34N, T64A, S74N, V83L counted along it

B1: hzsp34.15 (antibody, human IgG1, lambda, L234A L235A, V domains shown)
VH: EVQLVESGGGLVQPGGSLKLSCAASGFTFNTYAMNWVRQASGKGLEWVARIRSKYNNYATYYADSVKDRFTISRDDSKSTLYLQMNSLKTEDTAVYYCARHGNFGQSYVSWFAYWGQGTTVTVSS
VL: QAVVTQEPSLTVSPGGTVTLTCRSSTGAVTTSNYANWVQQKPGQAPRTLIGGTNKRAPGVPARFSGSLLGGKAALTLLGAQPEDEAEYYCALWYSNLWVFGQGTKLTVLG
notes: IgG1 L234A L235A, lambda
As a reminder, the Kd is the equilibrium constant for the complex coming apart. Usually koff stands for a measure of how fast the partners let go of each other. Broadly, the kon is a measure of how fast the partners come together. In test [1], B1 had a Kd of 1.75 nM, a koff of 0.00115 s⁻¹ and a kon of 658000 M⁻¹ s⁻¹. In test [2], this molecule came in with a Kd of 3.13 nM, an off-rate constant (koff) of 0.00202 s⁻¹ and a kon of 644000 M⁻¹ s⁻¹.

B2: hzsp34.33 (antibody, human IgG1, kappa, L234A L235A, V domains shown)
VH: B1 VH with A49G, Q106N
VL: EIVMTQSPATLSVSPGERATLSCRSSTGAVTTSNYANWVQQKPGQAPRLLIGGTNKRAPGVPARFSGSGSGTEFTLTISSLQSEDFAVYYCALWYSNLWVFGQGTKLTVLR
notes: IgG1 L234A L235A, kappa
On to B2, for which the binding result in test [1] and in test [2] was “no binding” throughout.

B3: hzsp34.13 (antibody, human IgG1, lambda, L234A L235A, V domains shown)
VH: B1 VH with A49G, Q106N
VL: B1 VL
notes: IgG1 L234A L235A, lambda
Turning to B3, in test [1], binding was put at a Kd of 1.75 nM, the koff was 0.00164 s⁻¹ and the kon worked out at 937000 M⁻¹ s⁻¹. In test [2], this molecule came in with a Kd of 4.33 nM, a koff of 0.00466 s⁻¹ and a kon of 1.08e+06 M⁻¹ s⁻¹.

B4: hzsp34.32 (antibody, human IgG1, kappa, L234A L235A, V domains shown)
VH: B1 VH with A49G, S79N, Q106N
VL: B2 VL
notes: IgG1 L234A L235A, kappa
Consider B4, for which the binding result in test [1] and in test [2] was “no binding” in each case.

B5: hzsp34.43 (antibody, human IgG1, kappa, L234A L235A, V domains shown)
VH: B1 VH with A49G, Q106N
VL: B2 VL with L49G, T72D
notes: IgG1 L234A L235A, kappa
In test [1], B5 returned a Kd of 7.92 nM, a koff of 0.00201 s⁻¹ and a kon of 253000 M⁻¹ s⁻¹. Besides, in test [2], the equilibrium dissociation constant (Kd) came to 12.6 nM, the off-rate constant (koff) was determined as 0.00453 s⁻¹ and the kon came to 359000 M⁻¹ s⁻¹.

B6: hzsp34.22 (antibody, human IgG1, lambda, L234A L235A, V domains shown)
VH: B1 VH with A49G, S79N, Q106N
VL: B1 VL with T48G, G71D
notes: IgG1 L234A L235A, lambda
For the molecule B6, in test [1], the Kd was found to be 0.585 nM, the koff worked out at 0.000886 s⁻¹ and the kon was 1.52e+06 M⁻¹ s⁻¹. In test [2], this molecule displayed a Kd of 0.605 nM, a dissociation rate constant (koff) of 0.00214 s⁻¹ and a kon of 3.54e+06 M⁻¹ s⁻¹.

B7: hzsp34.30 (antibody, human IgG1, kappa, L234A L235A, V domains shown)
VH: B1 VH
VL: B2 VL with V39Y, G52Y, V61I
notes: IgG1 L234A L235A, kappa
In the case of B7, the binding result in test [1] and in test [2] was “no binding” throughout.

B8: hzsp34.19 (antibody, human IgG1, lambda, L234A L235A, V domains shown)
VH: B1 VH with A49G
VL: B1 VL with T48G
notes: IgG1 L234A L235A, lambda
Turning to B8, in test [1], the affinity, expressed as Kd, was 0.602 nM; the koff is 0.00099 s⁻¹; the kon was found to be 1.64e+06 M⁻¹ s⁻¹. In addition, in test [2], binding was put at a Kd of 0.613 nM, the koff is 0.00233 s⁻¹ and the on-rate constant (kon) stood at 3.8e+06 M⁻¹ s⁻¹.

B9: hzsp34.23 (antibody, human IgG1, lambda, L234A L235A, V domains shown)
VH: B1 VH with A49G, Q106N
VL: B1 VL with T48G, G71D
notes: IgG1 L234A L235A, lambda
Turning to B9, in test [1], the Kd was 0.605 nM, the off-rate constant (koff) was 0.000791 s⁻¹ and the kon was 1.31e+06 M⁻¹ s⁻¹. For the same molecule, in test [2], binding was put at a Kd of 0.554 nM, the koff was found to be 0.00198 s⁻¹ and the on-rate (kon) is 3.57e+06 M⁻¹ s⁻¹.

B10: hzsp34.7 (antibody, human IgG1, lambda, L234A L235A, V domains shown)
VH: B1 VH with A49G, S79N, Q106N
VL: B1 VL with V38F, G51Y, G59W, V60T
notes: IgG1 L234A L235A, lambda
For the molecule B10, in test [1], the Kd worked out at 1.66 nM, the koff was found to be 0.000463 s⁻¹ and the kon is 279000 M⁻¹ s⁻¹. Further, the binding result in test [2] is given as “no binding”.

B11: hzsp34.27 (antibody, human IgG1, kappa, L234A L235A, V domains shown)
VH: B1 VH with A49G, S79N, Q106N
VL: B2 VL with V39Y, G52Y, V61I
notes: IgG1 L234A L235A, kappa
Take B11: the binding result in test [1] and in test [2] was “no binding” each time.

B12: hzsp34.25 (antibody, human IgG1, lambda, L234A L235A, V domains shown)
VH: B1 VH
VL: B1 VL with T48G, G71D
notes: IgG1 L234A L235A, lambda
Turning to B12, in test [1], binding was characterised by a dissociation constant (Kd) of 0.857 nM, the koff stood at 0.000913 s⁻¹ and the association rate constant (kon) stood at 1.07e+06 M⁻¹ s⁻¹. Also, in test [2], binding was characterised by a dissociation constant (Kd) of 1.17 nM, the koff is 0.00273 s⁻¹ and the kon is 2.35e+06 M⁻¹ s⁻¹.

B13: hzsp34.29 (antibody, human IgG1, kappa, L234A L235A, V domains shown)
VH: B1 VH with A49G
VL: B2 VL with V39Y, G52Y, V61I
notes: IgG1 L234A L235A, kappa
Turning to B13, the binding result in test [1] and in test [2] was “no binding” throughout.

B14: hzsp34.39 (antibody, human IgG1, kappa, L234A L235A, V domains shown)
VH: B1 VH with A49G
VL: B2 VL with L49G
notes: IgG1 L234A L235A, kappa
In test [1], B14 returned a Kd of 7.1 nM, a koff of 0.00203 s⁻¹ and a kon of 286000 M⁻¹ s⁻¹. Moreover, in test [2], binding was characterised by a dissociation constant (Kd) of 7.85 nM, the koff came to 0.00354 s⁻¹ and the kon is 451000 M⁻¹ s⁻¹.

B15: hzsp34.35 (antibody, human IgG1, kappa, L234A L235A, V domains shown)
VH: B1 VH
VL: B2 VL
notes: IgG1 L234A L235A, kappa
Turning to B15, the binding result in test [1] and in test [2] was “no binding” in each case.

B16: hzsp34.20 (antibody, human IgG1, lambda, L234A L235A, V domains shown)
VH: B1 VH
VL: B1 VL with T48G
notes: IgG1 L234A L235A, lambda
In test [1], B16 registered a Kd of 0.756 nM, a koff of 0.0011 s⁻¹ and a kon of 1.46e+06 M⁻¹ s⁻¹. In test [2], this molecule gave a Kd of 0.847 nM, a koff of 0.00275 s⁻¹ and an on-rate constant (kon) of 3.25e+06 M⁻¹ s⁻¹.

B17: hzsp34.18 (antibody, human IgG1, lambda, L234A L235A, V domains shown)
VH: B1 VH with A49G, Q106N
VL: B1 VL with T48G
notes: IgG1 L234A L235A, lambda
In test [1], B17 registered a dissociation constant (Kd) of 0.67 nM, a koff of 0.00088 s⁻¹ and a kon of 1.31e+06 M⁻¹ s⁻¹. In test [2], this molecule showed a Kd of 0.629 nM, a koff of 0.00208 s⁻¹ and a kon of 3.31e+06 M⁻¹ s⁻¹.

B18: hzsp34.37 (antibody, human IgG1, kappa, L234A L235A, V domains shown)
VH: B1 VH with A49G, S79N, Q106N
VL: B2 VL with L49G
notes: IgG1 L234A L235A, kappa
In test [1], B18 yielded a Kd of 6.24 nM, a koff of 0.002 s⁻¹ and a kon of 321000 M⁻¹ s⁻¹. In test [2], this molecule registered a Kd of 9.16 nM, a koff of 0.00399 s⁻¹ and a kon of 436000 M⁻¹ s⁻¹.

B19: hzsp34.12 (antibody, human IgG1, lambda, L234A L235A, V domains shown)
VH: B1 VH with A49G, S79N, Q106N
VL: B1 VL
notes: IgG1 L234A L235A, lambda
In test [1], B19 registered a Kd of 4.73 nM, a koff of 0.00226 s⁻¹ and a kon of 479000 M⁻¹ s⁻¹. In addition, in test [2], the Kd amounted to 6.19 nM, the koff stood at 0.00396 s⁻¹ and the kon stood at 640000 M⁻¹ s⁻¹.

B20: hzsp34.44 (antibody, human IgG1, kappa, L234A L235A, V domains shown)
VH: B1 VH with A49G
VL: B2 VL with L49G, T72D
notes: IgG1 L234A L235A, kappa
Consider B20, for which, in test [1], binding was put at a Kd of 12.1 nM, the koff was found to be 0.00293 s⁻¹ and the kon came out at 241000 M⁻¹ s⁻¹. In test [2], this molecule yielded a Kd of 16.5 nM, a koff of 0.00581 s⁻¹ and an on-rate constant (kon) of 353000 M⁻¹ s⁻¹.

B21: hzsp34.28 (antibody, human IgG1, kappa, L234A L235A, V domains shown)
VH: B1 VH with A49G, Q106N
VL: B2 VL with V39Y, G52Y, V61I
notes: IgG1 L234A L235A, kappa
On to B21, for which, in test [1], binding was put at a Kd of 2.82 nM, the dissociation rate constant (koff) stood at 0.00117 s⁻¹ and the kon turned out to be 415000 M⁻¹ s⁻¹. For the same molecule, the binding result in test [2] is recorded as “no binding”.

B22: hzsp34.17 (antibody, human IgG1, lambda, L234A L235A, V domains shown)
VH: B1 VH with A49G, S79N, Q106N
VL: B1 VL with T48G
notes: IgG1 L234A L235A, lambda
In test [1], B22 had a Kd of 0.514 nM, a koff of 0.000915 s⁻¹ and a kon of 1.78e+06 M⁻¹ s⁻¹. In test [2], this molecule returned a Kd of 0.51 nM, a koff of 0.00206 s⁻¹ and a kon of 4.04e+06 M⁻¹ s⁻¹.

B23: hzsp34.34 (antibody, human IgG1, kappa, L234A L235A, V domains shown)
VH: B1 VH with A49G
VL: B2 VL
notes: IgG1 L234A L235A, kappa
Regarding B23, the binding result in test [1] and in test [2] was “no binding” in each case.

Values taken from patent publication US20230374132A1 (Innovent, published 2023).
